Where two headings read alike, the source gives them in different places.
Assays:
[1] = biological target: T1, O8-bH; test: two-hybrid library CCNG1;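 further: natural log of median RNA to DNA barcode read ratio; higher means stronger binding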
T1 chain: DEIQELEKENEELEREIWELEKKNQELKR

[2] = biological target: T2, O7-bH; test: two-hybrid library CCNG1;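 further: natural log of median RNA to DNA barcode read ratio; higher means stronger binding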
T2 chain: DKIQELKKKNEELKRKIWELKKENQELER

[3] = biological target: T3, O9-bH; test: two-hybrid library CCNG1;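 further: natural log of median RNA to DNA barcode read ratio; higher means stronger binding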
T3 chain: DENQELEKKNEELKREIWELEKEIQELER

[4] = biological target: T4, O7-bN; test: two-hybrid library CCNG1;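 further: natural log of median RNA to DNA barcode read ratio; higher means stronger binding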
T4 chain: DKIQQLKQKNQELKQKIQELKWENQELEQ

[5] = biological target: T5, O9-bN; test: two-hybrid library CCNG1
T5 chain: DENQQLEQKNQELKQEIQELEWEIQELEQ

[6] = biological target: T6, O8-bN; test: two-hybrid library CCNG1
T6 chain: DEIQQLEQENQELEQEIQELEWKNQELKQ

[7] = biological target: T7, 4H3057-bA; test: two-hybrid library CCNG1
T7 chain: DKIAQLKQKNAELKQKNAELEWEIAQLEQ

[8] = biological target: T8, 4H319-bA; test: two-hybrid library CCNG1
T8 chain: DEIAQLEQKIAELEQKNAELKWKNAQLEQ

[9] = biological target: T9, 4H741-bA; test: two-hybrid library CCNG1
T9 chain: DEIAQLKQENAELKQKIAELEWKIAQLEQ

[10] = biological target: T10, 4H40-bA; test: two-hybrid library CCNG1
T10 chain: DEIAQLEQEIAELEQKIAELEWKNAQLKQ

[11] = biological target: T11, 4H348-bA; test: two-hybrid library CCNG1
T11 chain: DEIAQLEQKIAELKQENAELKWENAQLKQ

[12] = biological target: T12, 4H492-bA; test: two-hybrid library CCNG1
T12 chain: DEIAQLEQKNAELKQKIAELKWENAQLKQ

[13] = biological target: T13, 4H3277-bA; test: two-hybrid library CCNG1
T13 chain: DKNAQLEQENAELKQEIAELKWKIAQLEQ

[14] = biological target: T14, 4H477-bA; test: two-hybrid library CCNG1
T14 chain: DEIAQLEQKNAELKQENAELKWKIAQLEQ

[15] = biological target: T15, 4H4033-AA; test: two-hybrid library CCmax; conditions: mean of both orientations
T15 chain: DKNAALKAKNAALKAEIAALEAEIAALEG

[16] = biological target: T16, 4H481-AA; test: two-hybrid library CCmax; conditions: mean of both orientations
T16 chain: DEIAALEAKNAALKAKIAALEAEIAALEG

[17] = biological target: T17, 4H55-AA; test: two-hybrid library CCmax; conditions: mean of both orientations
T17 chain: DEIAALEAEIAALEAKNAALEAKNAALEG

[18] = biological target: T18, 4H3605-AA; test: two-hybrid library CCmax; conditions: mean of both orientations
T18 chain: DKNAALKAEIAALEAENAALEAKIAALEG

[19] = biological target: T19, 4H3664-AA; test: two-hybrid library CCmax; conditions: mean of both orientations
T19 chain: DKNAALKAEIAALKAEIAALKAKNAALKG

[20] = biological target: T20, 4H662-AA; test: two-hybrid library CCmax; conditions: mean of both orientations
T20 chain: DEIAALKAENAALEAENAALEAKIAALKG

[21] = biological target: T21, 4H369-AA; test: two-hybrid library CCmax; conditions: mean of both orientations
T21 chain: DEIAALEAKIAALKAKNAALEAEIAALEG

[22] = biological target: T22, 4H3625-AA; test: two-hybrid library CCmax; conditions: mean of both orientations
T22 chain: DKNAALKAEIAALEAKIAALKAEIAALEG

[23] = biological target: T23, 4H3922-AA; test: two-hybrid library CCmax; conditions: mean of both orientations
T23 chain: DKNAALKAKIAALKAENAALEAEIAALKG

[24] = biological target: T24, 4H327-AA; test: two-hybrid library CCmax
T24 chain: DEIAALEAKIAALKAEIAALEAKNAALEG

[25] = biological target: T25, 4H3277-bN; test: two-hybrid library CCNG1
T25 chain: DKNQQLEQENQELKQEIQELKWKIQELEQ

[26] = biological target: T26, 4H741-bN; test: two-hybrid library CCNG1
T26 chain: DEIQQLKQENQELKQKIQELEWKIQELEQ

[27] = biological target: T27, 4H348-bN; test: two-hybrid library CCNG1
T27 chain: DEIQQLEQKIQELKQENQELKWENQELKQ

[28] = biological target: T28, 4H40-bN; test: two-hybrid library CCNG1
T28 chain: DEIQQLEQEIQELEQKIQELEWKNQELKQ

[29] = biological target: T29, 4H319-bN; test: two-hybrid library CCNG1
T29 chain: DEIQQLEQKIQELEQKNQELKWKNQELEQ

[30] = biological target: T30, 4H492-bN; test: two-hybrid library CCNG1
T30 chain: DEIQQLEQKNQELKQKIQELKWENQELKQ

[31] = biological target: T31, 4H3057-bN; test: two-hybrid library CCNG1
T31 chain: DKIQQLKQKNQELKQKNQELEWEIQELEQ

[32] = biological target: T32, 4H477-bN; test: two-hybrid library CCNG1
T32 chain: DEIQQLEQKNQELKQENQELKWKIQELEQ

[33] = biological target: T33, 4H56-bH; test: two-hybrid library CCNG1
T33 chain: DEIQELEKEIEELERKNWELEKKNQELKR

[34] = biological target: T34, 4H949-bH; test: two-hybrid library CCNG1
T34 chain: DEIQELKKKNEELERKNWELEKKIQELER

[35] = biological target: T35, 4H3364-bH; test: two-hybrid library CCNG1
T35 chain: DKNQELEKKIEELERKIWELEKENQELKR

[36] = biological target: T36, 4H3381-bH; test: two-hybrid library CCNG1
T36 chain: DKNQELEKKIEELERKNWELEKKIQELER

[37] = biological target: T37, 4H730-bH; test: two-hybrid library CCNG1
T37 chain: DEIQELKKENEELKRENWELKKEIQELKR

[38] = biological target: T38, 4H796-bH; test: two-hybrid library CCNG1
T38 chain: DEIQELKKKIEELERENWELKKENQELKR

[39] = biological target: T39, 4H3041-bH; test: two-hybrid library CCNG1
T39 chain: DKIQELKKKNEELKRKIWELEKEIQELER

[40] = biological target: T40, 4H3297-bH; test: two-hybrid library CCNG1
T40 chain: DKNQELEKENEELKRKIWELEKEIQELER

[41] = biological target: T41, 4H932-bH; test: two-hybrid library CCNG1
T41 chain: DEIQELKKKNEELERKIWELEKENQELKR

[42] = biological target: T42, 4H349-bH; test: two-hybrid library CCNG1
T42 chain: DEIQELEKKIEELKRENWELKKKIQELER

[43] = biological target: T43, P7; test: two-hybrid library CC1; conditions: mean of both orientations
T43 chain: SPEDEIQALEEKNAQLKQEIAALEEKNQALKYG

[44] = biological target: T44, P9; test: two-hybrid library CC1; conditions: mean of both orientations
T44 chain: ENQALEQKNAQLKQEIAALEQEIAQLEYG

[45] = biological target: T45, P7mS; test: two-hybrid library CC1; conditions: mean of both orientations
T45 chain: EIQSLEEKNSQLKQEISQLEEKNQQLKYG

[46] = biological target: T46, P8; test: two-hybrid library CC1; conditions: mean of both orientations
T46 chain: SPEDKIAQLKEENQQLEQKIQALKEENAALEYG

[47] = biological target: T47, P6mS; test: two-hybrid library CC1
T47 chain: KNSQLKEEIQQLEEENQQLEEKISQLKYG

[48] = biological target: T48, P8mS; test: two-hybrid library CC1; conditions: mean of both orientations
T48 chain: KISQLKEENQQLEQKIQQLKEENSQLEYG

[49] = biological target: T49, APC4436-AA; test: two-hybrid library CCmax; conditions: mean of both orientations
T49 chain: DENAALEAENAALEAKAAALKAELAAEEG

[50] = biological target: T50, APC7099-AA; test: two-hybrid library CCmax; conditions: mean of both orientations
T50 chain: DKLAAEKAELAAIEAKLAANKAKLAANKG

[51] = biological target: T51, APC9096-AA; test: two-hybrid library CCmax; conditions: mean of both orientations
T51 chain: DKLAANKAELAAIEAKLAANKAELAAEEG

[52] = biological target: T52, APC5383-AA; test: two-hybrid library CCmax; conditions: mean of both orientations
T52 chain: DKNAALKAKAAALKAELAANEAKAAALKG

[53] = biological target: T53, APC6108-AA; test: two-hybrid library CCmax; conditions: mean of both orientations
T53 chain: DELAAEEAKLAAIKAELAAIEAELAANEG

[54] = biological target: T54, APC4011-AA; test: two-hybrid library CCmax; conditions: mean of both orientations
T54 chain: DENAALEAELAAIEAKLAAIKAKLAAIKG

[55] = biological target: T55, APC8910-AA; test: two-hybrid library CCmax; conditions: mean of both orientations
T55 chain: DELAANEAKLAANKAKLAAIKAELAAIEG

[56] = biological target: T56, APC3645-AA; test: two-hybrid library CCmax; conditions: mean of both orientations
T56 chain: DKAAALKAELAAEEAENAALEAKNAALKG

[57] = biological target: T57, APC8191-AA; test: two-hybrid library CCmax; conditions: mean of both orientations
T57 chain: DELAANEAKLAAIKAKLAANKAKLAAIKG

[58] = biological target: T58, APC4264-AA; test: two-hybrid library CCmax; conditions: mean of both orientations
T58 chain: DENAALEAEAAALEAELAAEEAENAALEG

[59] = biological target: T59, APC9319-AA; test: two-hybrid library CCmax; conditions: mean of both orientations
T59 chain: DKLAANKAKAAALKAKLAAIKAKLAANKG

[60] = biological target: T60, APC2405-AA; test: two-hybrid library CCmax
T60 chain: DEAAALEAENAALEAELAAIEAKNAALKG

## DENQELEKEIEELERKNWELKKEIQELER [O5-bH]
[1]
  interaction score: -0.103
[2]
  interaction score: 0.921
[3]
  interaction score: -0.548

## DENQQLEQEIQELEQKNQELKWEIQELEQ [O5-bN]
[4]
  interaction score: -0.471
[5]
  interaction score: -1.42
[6]
  interaction score: -0.445

## DKNQELKKKIEELKRENWELEKKIQELKR [O6-bH]
[1]
  interaction score: 0.914
[2]
  interaction score: 0.89
[3]
  interaction score: -0.446

## DKNQQLKQKIQELKQENQELEWKIQELKQ [O6-bN]
[4]
  interaction score: -0.589
[5]
  interaction score: -1.38
[6]
  interaction score: -0.754

## DKIQELKKKNEELKRKIWELKKENQELER [O7-bH]
[1]
  interaction score: 1.5
[2]
  interaction score: -0.477
[3]
  interaction score: 0.59

## DKIAQLKQKNAELKQKNAELEWEIAQLEQ [4H3057-bA]
[7]
  interaction score: -0.859
[8]
  interaction score: -1.24
[9]
  interaction score: -1.38
[10]
  interaction score: -1.17
[11]
  interaction score: -1.57
[12]
  interaction score: -1.16
[13]
  interaction score: -1.24
[14]
  interaction score: -1.12

## DEIAALEAKIAALKAEIAALEAKNAALEG [4H327-AA]
[15]
  interaction score: 0.297
[16]
  interaction score: -0.644
[17]
  interaction score: -0.319
[18]
  interaction score: -1.29
[19]
  interaction score: 0.733
[20]
  interaction score: -1.42
[21]
  interaction score: -0.747
[22]
  interaction score: 1.3
[23]
  interaction score: 0.621
[24]
  interaction score: 1.84

## DKIQQLKQKNQELKQKNQELEWEIQELEQ [4H3057-bN]
[25]
  interaction score: -0.965
[26]
  interaction score: -0.673
[27]
  interaction score: -1.34
[28]
  interaction score: -1.17
[29]
  interaction score: -1.2
[30]
  interaction score: -1.18
[31]
  interaction score: -1.22
[32]
  interaction score: -2.69

## DKIQELKKKNEELKRKIWELEKEIQELER [4H3041-bH]
[33]
  interaction score: 0.679
[34]
  interaction score: -0.161
[35]
  interaction score: -1.08
[36]
  interaction score: -0.693
[37]
  interaction score: -0.877
[38]
  interaction score: -0.497
[39]
  interaction score: 0.721
[40]
  interaction score: 0.592
[41]
  interaction score: -0.092
[42]
  interaction score: -0.833

## KNSQLKEEIQQLEEENQQLEEKISQLKYG [P6mS]
[43]
  interaction score: -2.01
[44]
  interaction score: -2.37
[45]
  interaction score: -2.67
[46]
  interaction score: -2.63
[47]
  interaction score: -2.84
[48]
  interaction score: -2.85

## DELAAIEAEAAALEAKAAALKAEAAALEG [APC232-AA]
[49]
  interaction score: -1.65
[50]
  interaction score: -1.68
[51]
  interaction score: -1.8
[52]
  interaction score: -2.15
[53]
  interaction score: -1.6
[54]
  interaction score: -1.21
[55]
  interaction score: -2.1
[56]
  interaction score: -1.5
[57]
  interaction score: -2.34
[58]
  interaction score: -1.93
[59]
  interaction score: -1.47
[60]; mean of both orientations
  interaction score: -1.6

## DKIQQLKQKNQELKQKIQELKWENQELEQ [O7-bN]
[4]
  interaction score: -1.44
[5]
  interaction score: -1.53
[6]
  interaction score: 0.737

## DEAAALEAENAALEAELAAIEAKNAALKG [APC2405-AA]
[49]
  interaction score: -1.04
[50]
  interaction score: -1.31
[51]
  interaction score: -1.39
[52]
  interaction score: -1.52
[53]
  interaction score: -1.24
[54]
  interaction score: -1.01
[55]
  interaction score: -1.63
[56]
  interaction score: -1.29
[57]
  interaction score: 0.786
[58]
  interaction score: -1.55
[59]
  interaction score: -1.81
[60]
  interaction score: -1.47

From PMC10397247
